In article PMC3102710:

Target: SARS-CoV nsp10 (SARS-CoV Frankfurt-1)
Experiment: pull-down

Substance: SARS-CoV nsp16 (enzyme)
- % associated: 100%
